Patent US20090117126A1 (UCB, published 2009)

T1: recombinant human IL-17 (human, UniProt Q16552 20-155, limits assumed)
T1 sequence (looked up): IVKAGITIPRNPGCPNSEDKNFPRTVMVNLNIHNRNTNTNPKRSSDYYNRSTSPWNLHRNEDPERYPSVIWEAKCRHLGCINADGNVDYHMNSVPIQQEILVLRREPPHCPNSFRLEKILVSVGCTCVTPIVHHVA


Legend:
recombinant human IL-17 [1] = target: T1, recombinant human IL-17; assay: cell-based or functional assay
recombinant human IL-17 [2] = target: T1, recombinant human IL-17; assay: cell-based or functional assay; remark: listed apart in the source
monkey recombinant IL-17 = monkey recombinant IL-17 (monkey); assay: cell-based or functional assay
recombinant human IL-17 [3] = target: T1, recombinant human IL-17; assay: BIAcore 3000; mean of the five replicates of Table 1; mean of the replicates of Table 1; CDP435 captured by anti-human IgG F(ab)2, IL-17 in solution
Description: The assay format used CDP435 captured by anti-human IgG F(ab)₂ with a titration of recombinant human IL-17 in the solution phase. BIA (Biamolecular Interaction Analysis) was performed using a BIAcore 3000 (BIAcore AB). Affinipure F(ab′)₂ Fragment goat anti-human IgG, F(ab)₂ fragment specific (Jackson ImmunoResearch) was immobilised on a CM5 Sensor Chip via amine coupling chemistry to a capture level of ≈9000 response units (RUs). HBS-EP buffer (10 mM HEPES pH 7.4, 0.15 M NaCl, 3 mM EDTA, 0.005% Surfactant P20, BIAcore AB) was used as the running buffer with a flow rate of 10 μl/min. An injection of CDP435 was made at 10 μl/min in order to obtain around 200 Ru of Fab captured by the immobilised anti-human IgG-F(ab)₂ to the surface. Human IL-17 was titrated over the captured antibody Fab fragment at various concentrations at a flow rate of 30 μl/min. The surface was regenerated by a 2×10 μl injection of 40 mM HCl, followed by a 5 μl injection of 5 mM NaOH at a flow rate of 10 μl/min.
Background subtraction binding curves were analysed using the BIAevaluation software (version 3.2) following standard procedures. Kinetic parameters were determined from the fitting algorithm. The affinity was measured at human IL-17 concentrations at or below 12.5 nM.

IC50 (read off the curve) (recombinant human IL-17 [1]) [µg/mL]	IC50, human IL-17 (25 ng/ml) induced IL-6 production from Hela cells (recombinant human IL-17 [2]) [µg/mL]	IC50, monkey IL-17 (25 ng/ml) induced IL-6 production from Hela cells (monkey recombinant IL-17) [µg/mL]	Kd (recombinant human IL-17 [3]) [nM]	Binder
~0.2				murine monoclonal antibody IL-17F4.100 (antibody, V domains shown) VH: QVQLKESGPGLVAPSQSLSITCTVSGFSLTTYGVHWIRQPPGKGLEWLVVIWSDGYTTYNSALKSRLSITKDNSKSQVFLKMNSLQTDDTAMYYCARNDGDYFYSMDYWGQGTSVTVSS VL: DVVMTQTPLSLPVSLGDQASFSCRSSQSLVHSNGNTYLHWYLQKPGQSPKLLIYKVSNRFSGVPDRFSGSGSGTDFTLKISRVEAEDLGVYFCSQSTHVPTFGGGTKLEIKR
	0.158	0.147	0.224	CDP435 (PEGylated Fab fragment, gH11gL3 graft, 2 x 20 kDa PEG) (Fab, V domains shown, 20 kDa PEG-maleimide on the interchain cysteine of CL (position 214 by Kabat numbering, 218 by sequential numbering); 20 kDa PEG-maleimide on the interchain cysteine of CH1 (cys-233 by Kabat numbering, cys-222 by sequential numbering; C-terminal residue), no interchain disulphide after PEGylation) VH: EVQLVESGGGVVQPGGSLRLSCAVSGFSLTTYGVHWVRQAPGKGLEWVAVIWSDGYTTYNSALKSRFTISRDNSKNTVYLQMNSLRAEDTAVYYCARNDGDYFYSMDYWGQGTLVTVSS VL: DVQMTQSPSSLSASVGDRVTITCRSSQSLVHSNGNTYLHWYQQKPGKAPKLLIYKVSNRFSGVPSRFSGSGSGTDFTLTISSLQPEDFATYYCSQSTHVPTFGQGTKVEIKR
~0.2				antibody Fab fragment of CDP435 (not PEGylated) (Fab, V domains shown) VH: EVQLVESGGGVVQPGGSLRLSCAVSGFSLTTYGVHWVRQAPGKGLEWVAVIWSDGYTTYNSALKSRFTISRDNSKNTVYLQMNSLRAEDTAVYYCARNDGDYFYSMDYWGQGTLVTVSS VL: DVQMTQSPSSLSASVGDRVTITCRSSQSLVHSNGNTYLHWYQQKPGKAPKLLIYKVSNRFSGVPSRFSGSGSGTDFTLTISSLQPEDFATYYCSQSTHVPTFGQGTKVEIKR
